From publication PMC8244302, “Shotgun EM of mycobacterial protein complexes during stationary phase stress” (Current Research in Structural Biology, 2020)

What was measured:
[1] = molecular target: the molecule itself; experiment: negative stain EM single-particle reconstruction; partially fractionated late stationary phase Msm lysate (anion exchange or sucrose cushion, >100 kDa cut-off), 2% uranyl acetate, Relion 3.1; symmetry imposed from 2D classes; C3 symmetry for encapsulin with cargo
[2] = molecular target: T1, Msm encapsulin (MSMEG_5830) (M. smegmatis (endogenous in Msm groELΔC), UniProt A0R4H0 1-265); experiment: as above; conditions: partners not purified
T1 construct: encapsulin of Mycobacterium smegmatis, locus MSMEG_5830; Reconstructed with icosahedral symmetry; also called complex 001; encapsulin nanocompartment; source: endogenous, M. smegmatis groELΔC late stationary phase lysate, partially fractionated (anion exchange, >100 kDa cut-off; gel filtration); also solubilised membrane fraction
T1 sequence (looked up): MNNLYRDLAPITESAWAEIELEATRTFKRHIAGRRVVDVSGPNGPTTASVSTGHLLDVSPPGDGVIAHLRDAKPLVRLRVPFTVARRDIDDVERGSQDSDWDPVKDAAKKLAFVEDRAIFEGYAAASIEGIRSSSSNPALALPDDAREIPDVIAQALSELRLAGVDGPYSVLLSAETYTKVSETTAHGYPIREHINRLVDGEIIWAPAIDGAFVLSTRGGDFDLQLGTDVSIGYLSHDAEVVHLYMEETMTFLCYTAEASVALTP

B1: Msm dye-decolourising type peroxidase (MSMEG_5829) (enzyme, M. smegmatis (endogenous in Msm groELΔC), UniProt A0R4G9 1-343, looked up)
chain: MPAPQPQPVLAPLTPAAVFLVATIDEGQEATVYDALPDISGLVRAIGFRDPAKRLSAITSIGSDAWDRLFSGPRPAELHPFREIDGGRHHAPATPGDLLFHLRAESMDVCFELATKLVEAMSGAITIVDETHGFRFFDNRDLMGFVDGTENPDGNLAVVATQIGDEDPDFAGGCYVHVQKYLHDMASWNSLSVEEQERVIGRTKLDDIELDDDVKPANSHVALNVIEDEDGNELKIIRHNMPFGEIGKGEFGTYYIGYSRTPSVTERMLDNMFIGDPPGNTDRILDFSTAITGGLFFTPTVDFLDDPPPLPSEDDRAEPASAPSADPVHTDGSLGIGSLKGTR
notes: dye-decolourising type peroxidase of Mycobacterium smegmatis, locus MSMEG_5829; Interpreted as a D3 hexamer from the cargo density in the C3 map; also called DyP; DyP type peroxidase; source: endogenous, M. smegmatis groELΔC late stationary phase lysate, partially fractionated, enclosed in encapsulin; also solubilised membrane fraction
- stoichiometry N [1]: 6 subunits
- stoichiometry N [2]: 10 encapsulin subunits per DyP subunit
